Test results reported in patent US20230295310A1 (ABCELLERA BIOLOGICS, published 2023).

Target: human EGFR, C-terminal eGFP-tagged, on CHO-K1 cells (human, UniProt P00533 25-1210)
Experiment: cell-based or functional assay

Binder	EC50 CHO-K1 EGFR Low (nM); T cell activation bioassay, luciferase	EC50 CHO-K1 EGFR Med (nM); T cell activation bioassay, luciferase
GOMP001_bsAb_044 (bispecific antibody, human IgG1, kappa, L234A L235A) heavy 1: EVQLVESGGGLVKTGGSLRLSCVASGFSFKKAWMNWVRYAPGKGLEWVGRIKRNTDGGTADYAARVKGRFTLSRDDSKKTLFLQMNSLKTEDTAVYYCTTLDSSSYYVGYYYMDVWGRGTTVTVSSASTKGPSVFPLAPSSKSTSGGTAALGCLVKDYFPEPVTVSWNSGALTSGVHTFPAVLQSSGLYSLSSVVTVPSSSLGTQTYICNVNHKPSNTKVDKKVEPKSCDKTHTCPPCPAPEAAGGPSVFLFPPKPKDTLMISRTPEVTCVVVDVSHEDPEVKFNWYVDGVEVHNAKTKPREEQYNSTYRVVSVLTVLHQDWLNGKEYKCKVSNKALPAPIEKTISKAKGQPRRPRVYTLPPSREEMTKNQVSLVCLVKGFYPSDIAVEWESNGQPENNYKTTPPVLDSDGSFFLYSVLTVDKSRWQQGNVFSCSVMHEALHNHYTQKSLSLSPG light 1: DIQMTQSPSSVSASVGDRVTITCRASQDINNWLAWYQRKPGDAPKLLIYTASSLQSGVPSRFSGSGSGTDFTLTIGSLQPEDFATYYCQQAHSLPITFGQGTRLEIKRTVAAPSVFIFPPSDEQLKSGTASVVCLLNNFYPREAKVQWKVDNALQSGNSQESVTEQDSKDSTYSLSSTLTLSKADYEKHKVYACEVTHQGLSSPVTKSFNRGEC heavy 2: QVQLVQSGAEVKKPGASVKVSCKASGYTFTSHWMHWVRYAPGQGLEWIGEFNPSNGRTNYNEKFKSKATMTVDTSTNTAYMELSSLRSEDTAVYYCASRDYDYDGRYFDYWGRGTLVTVSSASTKGPSVFPLAPSSKSTSGGTAALGCLVKDYFPEPVTVSWNSGALTSGVHTFPAVLQSSGLYSLSSVVTVPSSSLGTQTYICNVNHKPSNTKVDKKVEPKSCDKTHTCPPCPAPEAAGGPSVFLFPPKPKDTLMISRTPEVTCVVVDVSHEDPEVKFNWYVDGVEVHNAKTKPREEQYNSTYRVVSVLTVLHQDWLNGKEYKCKVSNKALPAPIEKTISKAKGQPRRPRVYTLPPSREEMTKNQVSLVCLVKGFYPSDIAVEWESNGQPENNYKTTPPVLDSDGSFFLYSVLTVDKSRWQQGNVFSCSVMHEALHNHYTQKSLSLSPG light 2: DIQMTQSPSSLSASVGDRVTITCSASSSVTYMYWYQRKPGDAPKLLIYDTSNLASGVPSRFSGSGSGTDYTFTISSLQPEDIATYYCQQWSSHIFTFGQGTKVEIKRTVAAPSVFIFPPSDEQLKSGTASVVCLLNNFYPREAKVQWKVDNALQSGNSQESVTEQDSKDSTYSLSSTLTLSKADYEKHKVYACEVTHQGLSSPVTKSFNRGEC	0.0136 nM	0.0041 nM
GOMP001_bsAb_045 (bispecific antibody, human IgG1, kappa, L234A L235A) heavy 1: QVQLVQSGAEVKKPGASVKVSCKASGYTFTSHWMHWVRKAPGQGLEWIGEFNPSNGRTNYNEEFKSKATMTVDTSTNTAYMELSSLRSEDTAVYYCASRDYDYDGRYFDYWGQGTLVTVSSASTKGPSVFPLAPSSKSTSGGTAALGCLVADYFPEPVTVSWNSGALTSGVHTFPAVLQSSGLYSLSSVVTVPSSSLGTQTYICNVNHKPSNTKVDEKVEPKSCDKTHTCPPCPAPEAAGGPSVFLFPPKPKDTLMISRTPEVTCVVVDVSHEDPEVKFNWYVDGVEVHNAKTKPREEQYNSTYRVVSVLTVLHQDWLNGKEYKCKVSNKALPAPIEKTISKAKGQPREPQVYTLPPSREEMTDNQVSLTCLVKGFYPSDIAVEWESNGQPENNYKTTPPVLMSDGSFFLASKLTVDKSRWQQGNVFSCSVMHEALHNHYTQKSLSLSPG light 1: RIQMTQSPSSLSASVGDRVTITCSASSSVTYMYWYQDKPGKAPKLLIYDTSNLASGVPSRFSGSGSGTDYTFTISSLQPEDIATYYCQQWSSHIFTFGQGTKVEIKRTVAAPSVFIFPPSDKQLKSGTARVVCLLNNFYPREAKVQWKVDNALQSGNSQESVTEQDSKDSTYSLSSTLTLSKADYEKHKVYACEVTHQGLSSPVTKSFNRGEC heavy 2: QVQLVQSGAEVKKPGASVKVSCKASGYTFTSHWMHWVRKAPGQGLEWIGEFNPSNGRTNYNEEFKSKATMTVDTSTNTAYMELSSLRSEDTAVYYCASRDYDYDGRYFDYWGQGTLVTVSSASTKGPSVFPLAPSSKSTSGGTAALGCLVADYFPEPVTVSWNSGALTSGVHTFPAVLQSSGLYSLSSVVTVPSSSLGTQTYICNVNHKPSNTKVDEKVEPKSCDKTHTCPPCPAPEAAGGPSVFLFPPKPKDTLMISRTPEVTCVVVDVSHEDPEVKFNWYVDGVEVHNAKTKPREEQYNSTYRVVSVLTVLHQDWLNGKEYKCKVSNKALPAPIEKTISKAKGQPREPQVYTLPPSREEMTDNQVSLTCLVKGFYPSDIAVEWESNGQPENNYKTTPPVLMSDGSFFLASKLTVDKSRWQQGNVFSCSVMHEALHNHYTQKSLSLSPG light 2: not shown	0.071 nM	0.00792 nM
GOMP001_bsAb_046 (bispecific antibody, human IgG1, kappa, L234A L235A) heavy 1: QVQLVQSGAEVKKPGASVKVSCKASGYTFTSHWMHWVRKAPGQGLEWIGEFNPSNGRTNYNEEFKSKATMTVDTSTNTAYMELSSLRSEDTAVYYCASRDYDYDGRYFDYWGQGTLVTVSSASTKGPSVFPLAPSSKSTSGGTAALGCLVADYFPEPVTVSWNSGALTSGVHTFPAVLQSSGLYSLSSVVTVPSSSLGTQTYICNVNHKPSNTKVDEKVEPKSCDKTHTCPPCPAPEAAGGPSVFLFPPKPKDTLMISRTPEVTCVVVDVSHEDPEVKFNWYVDGVEVHNAKTKPREEQYNSTYRVVSVLTVLHQDWLNGKEYKCKVSNKALPAPIEKTISKAKGQPREPQVYTLPPSREEMTDNQVSLTCLVKGFYPSDIAVEWESNGQPENNYKTTPPVLMSDGSFFLASKLTVDKSRWQQGNVFSCSVMHEALHNHYTQKSLSLSPG light 1: not shown heavy 2: QVQLVQSGAEVKKPGASVKVSCKASGYTFTSHWMHWVRYAPGQGLEWIGEFNPSNGRTNYNEKFKSKATMTVDTSTNTAYMELSSLRSEDTAVYYCASRDYDYDGRYFDYWGRGTLVTVSSASTKGPSVFPLAPSSKSTSGGTAALGCLVKDYFPEPVTVSWNSGALTSGVHTFPAVLQSSGLYSLSSVVTVPSSSLGTQTYICNVNHKPSNTKVDKKVEPKSCDKTHTCPPCPAPEAAGGPSVFLFPPKPKDTLMISRTPEVTCVVVDVSHEDPEVKFNWYVDGVEVHNAKTKPREEQYNSTYRVVSVLTVLHQDWLNGKEYKCKVSNKALPAPIEKTISKAKGQPRRPRVYTLPPSREEMTKNQVSLVCLVKGFYPSDIAVEWESNGQPENNYKTTPPVLDSDGSFFLYSVLTVDKSRWQQGNVFSCSVMHEALHNHYTQKSLSLSPG light 2: DIQMTQSPSSLSASVGDRVTITCSASSSVTYMYWYQRKPGDAPKLLIYDTSNLASGVPSRFSGSGSGTDYTFTISSLQPEDIATYYCQQWSSHIFTFGQGTKVEIKRTVAAPSVFIFPPSDEQLKSGTASVVCLLNNFYPREAKVQWKVDNALQSGNSQESVTEQDSKDSTYSLSSTLTLSKADYEKHKVYACEVTHQGLSSPVTKSFNRGEC	0.02 nM	0.00409 nM
GOMP001_bsAb_049 (bispecific antibody, human IgG1, kappa, L234A L235A) heavy 1: QVQLVQSGAEVKKPGASVKVSCKASGYTFTSHWMHWVRKAPGQGLEWIGEFNPSNGRTNYNEEFKSKATMTVDTSTNTAYMELSSLRSEDTAVYYCASRDYDYDGRYFDYWGQGTLVTVSSASTKGPSVFPLAPSSKSTSGGTAALGCLVADYFPEPVTVSWNSGALTSGVHTFPAVLQSSGLYSLSSVVTVPSSSLGTQTYICNVNHKPSNTKVDEKVEPKSCDKTHTCPPCPAPEAAGGPSVFLFPPKPKDTLMISRTPEVTCVVVDVSHEDPEVKFNWYVDGVEVHNAKTKPREEQYNSTYRVVSVLTVLHQDWLNGKEYKCKVSNKALPAPIEKTISKAKGQPREPQVYTLPPSREEMTDNQVSLTCLVKGFYPSDIAVEWESNGQPENNYKTTPPVLMSDGSFFLASKLTVDKSRWQQGNVFSCSVMHEALHNHYTQKSLSLSPG light 1: RIQMTQSPSSLSASVGDRVTITCSASSSVTYMYWYQDKPGKAPKLLIYDTSNLASGVPSRFSGSGSGTDYTFTISSLQPEDIATYYCQQWSSHIFTFGQGTKVEIKRTVAAPSVFIFPPSDKQLKSGTARVVCLLNNFYPREAKVQWKVDNALQSGNSQESVTEQDSKDSTYSLSSTLTLSKADYEKHKVYACEVTHQGLSSPVTKSFNRGEC heavy 2: QVQLVESGGGVVQPGRSLRLSCAASGFTFSTYGMHWVRYAPGKGLEWVAVIWYDGSHKYYADRVKGRFTISRDNSKKTLYLQMNSLRAEDTGIYYCARTGISGNMSYFYFDHWGRGILVTVSSASTKGPSVFPLAPSSKSTSGGTAALGCLVKDYFPEPVTVSWNSGALTSGVHTFPAVLQSSGLYSLSSVVTVPSSSLGTQTYICNVNHKPSNTKVDKKVEPKSCDKTHTCPPCPAPEAAGGPSVFLFPPKPKDTLMISRTPEVTCVVVDVSHEDPEVKFNWYVDGVEVHNAKTKPREEQYNSTYRVVSVLTVLHQDWLNGKEYKCKVSNKALPAPIEKTISKAKGQPRRPRVYTLPPSREEMTKNQVSLVCLVKGFYPSDIAVEWESNGQPENNYKTTPPVLDSDGSFFLYSVLTVDKSRWQQGNVFSCSVMHEALHNHYTQKSLSLSPG light 2: not shown	–	0.138 nM
GOMP001_bsAb_050 (bispecific antibody, human IgG1, kappa, L234A L235A) heavy 1: QVQLVESGGGVVQPGRSLRLSCAASGFTFSTYGMHWVRYAPGKGLEWVAVIWYDGSHKYYADRVKGRFTISRDNSKKTLYLQMNSLRAEDTGIYYCARTGISGNMSYFYFDHWGRGILVTVSSASTKGPSVFPLAPSSKSTSGGTAALGCLVKDYFPEPVTVSWNSGALTSGVHTFPAVLQSSGLYSLSSVVTVPSSSLGTQTYICNVNHKPSNTKVDKKVEPKSCDKTHTCPPCPAPEAAGGPSVFLFPPKPKDTLMISRTPEVTCVVVDVSHEDPEVKFNWYVDGVEVHNAKTKPREEQYNSTYRVVSVLTVLHQDWLNGKEYKCKVSNKALPAPIEKTISKAKGQPRRPRVYTLPPSREEMTKNQVSLVCLVKGFYPSDIAVEWESNGQPENNYKTTPPVLDSDGSFFLYSVLTVDKSRWQQGNVFSCSVMHEALHNHYTQKSLSLSPG light 1: not shown heavy 2: QVQLVQSGAEVKKPGASVKVSCKASGYTFTSHWMHWVRYAPGQGLEWIGEFNPSNGRTNYNEKFKSKATMTVDTSTNTAYMELSSLRSEDTAVYYCASRDYDYDGRYFDYWGRGTLVTVSSASTKGPSVFPLAPSSKSTSGGTAALGCLVKDYFPEPVTVSWNSGALTSGVHTFPAVLQSSGLYSLSSVVTVPSSSLGTQTYICNVNHKPSNTKVDKKVEPKSCDKTHTCPPCPAPEAAGGPSVFLFPPKPKDTLMISRTPEVTCVVVDVSHEDPEVKFNWYVDGVEVHNAKTKPREEQYNSTYRVVSVLTVLHQDWLNGKEYKCKVSNKALPAPIEKTISKAKGQPRRPRVYTLPPSREEMTKNQVSLVCLVKGFYPSDIAVEWESNGQPENNYKTTPPVLDSDGSFFLYSVLTVDKSRWQQGNVFSCSVMHEALHNHYTQKSLSLSPG light 2: DIQMTQSPSSLSASVGDRVTITCSASSSVTYMYWYQRKPGDAPKLLIYDTSNLASGVPSRFSGSGSGTDYTFTISSLQPEDIATYYCQQWSSHIFTFGQGTKVEIKRTVAAPSVFIFPPSDEQLKSGTASVVCLLNNFYPREAKVQWKVDNALQSGNSQESVTEQDSKDSTYSLSSTLTLSKADYEKHKVYACEVTHQGLSSPVTKSFNRGEC	1.67 nM	0.0606 nM
